# Laboratory results: US11466067B2 (priority 2019, dated 2022)
# B1: IL-10 delivery construct: recombinant homodimeric fusion protein: N-terminal methionine, cholix386 domain, polyGlySer spacer, recombinant human IL-10 (protein)
# chain: MVEEALNIFDECRSPCSLTPEPGKPIQSKLSIPSDVVLDEGVLYYSMTINDEQNDIKDEDKGESIITIGEFATVRATRHYVNQDAPFGVIHLDITTENGTKTYSYNRKEGEFAINWLVPIGEDSPASIKISVDELDQQRNIIEVPKLYSIDLDNQTLEQWKTQGNVSFSVTRPEHNIAISWPSVSYKAAQKEGSRHKRWAHWHTGLALCWLVPMDAIYNYITQQNCTLGDNWFGGSYETVAGTPKVITVKQGIEQKPVEQRIHFSKGNAMSALAAHRVCGVPLETLARSRKPRDLTDDLSCAYQAQNIVSLFVATRILFSHLDSVFTLNLDEQEPEVAERLSDLRRINENNPGMVTQVLTVARQIYNDYVTHHPGLTPEQTSAGAQAGGGGSGGGGSGGGGSPGQGTQSENSCTHFPGNLPNMLRDLRDAFSRVKTFFQMKDQLDNLLLKESLLEDFKGYLGCQALSEMIQFYLEEVMPQAENQDPDIKAHVNSLGENLKTLRLRLRRCHRFLPCENKSKAVEQVKNAFNKLQEKGIYKAMSEFDIFINYIEAYMTMKIRN
# modifications: homodimer
# Columns and labels:
# STAT3 phosphorylation = assay: In vivo pSTAT3 induction after intraluminal injection or oral gavage; set-up: species or system Balb/C mice; conditions: intraluminal injection, jejunum
# Procedure: In vivo studies in mice were performed where the biological activity of human IL-10 following transcytosis was assessed for its ability to stimulate the mouse IL-10 receptor and increase phosphorylation of STAT3 (pSTAT3) in cells within the Lamina propria.
# An extensive amount of rhIL-10 (SEQ ID NO: 5) was trafficked through enterocytes. Additionally, there were a population of lymphocyte-like cells at the basolateral surface of enterocytes and within the Lamina propria that were pSTAT3 positive.
# Entire intestines of mice were isolated and processed as a “swiss role” and localization of pSTAT3 was detected by immunofluorescence confocal microscopy (FIG. 110).
# ulcerative colitis = assay: Phase 1b multiple ascending dose in patients with active UC; assay type: in vivo, human
# Procedure: Data was gathered on the safety, tolerability, pharmacokinetics, pharmacodynamics, and initial clinical response following a multiple ascending dose (MAD) of the IL-10 delivery construct in adult patients with active UC over 14 days of treatment. […] A coating with a weight ratio of 50:50 of Eudragit® L30D55: Eudragit® FS30D was applied with a thickness of 14.8 to 16.0 mg/cm^2 and a weight of approximately 76 mg to each capsule. Placebo capsules were generated using similarly coated empty capsules.
# A total of four cohorts were dosed with either 1 mg, 3 mg, 10, mg or 30 mg of the IL-10 delivery construct, randomized 3:1 to receive the IL-10 delivery construct or a placebo administered once daily for fourteen days. The goal of the trial was to assess the safety of the IL-10 delivery construct and any change in UC disease activity, through endoscopy, histology, biomarkers, and serum samples. Stool samples and colonic biopsies were obtained at baseline and day 14 of treatment to assess fecal calprotectin as well as histology based upon blinded central read of the Geboes scoring system. Fecal calprotectin is an objective marker of clinical response in UC studies and the Geboes scoring system is a measure of histological response. The Geboes scoring system of this example used a 0-22 point histologic scoring system in which higher scores represent more severe disease.
# [1] = Process trains with S-650F cation exchange: yield, recovery, purity, endotoxin
# Procedure: Refolding was carried out at 4° C. in a refolding solution containing 1 mM reduced glutathione, 0.5 mM oxidized glutathione, 1M Arginine-HCl, 250 mM sucrose, 100 mM Tris pH 8.5 at 4° C., and 2 mM EDTA. […] Buffer A for the CHT bind/elute step in Table 56 may also comprise 25 mM Tris, pH7.5, 300 mM NaCl, 5.0 mM NaPi, 0.5 mM CaCl2. Columns used are described in Table 58.
# The yield, recovery, and purity of the IL-10 delivery construct was assess after each step, and after each process train.
# circulating cytokines [2] = conditions: 8.45 mg/kg, Luminex
# [3] = Oral gavage 10 mg/kg in mice: hIL-10 and IL-1Ra time course; assay type: in vivo
# Excerpt: The inflammatory actions of IL-1β are modulated by the presence of a specific receptor antagonist known as IL-1Ra. Increased serum IL-1Ra levels can be induced by IL-10, which can occur in the absence of a pro-inflammatory state. With an appreciation of uncertainties associated with how much and when biologically active delivery construct is released from the stomach to reach the small intestine as well as the timing of its uptake and actions within the Lamina propria following oral gavage, we examined IL-1Ra to function in non-inflamed mice as a biomarker of the IL-10 delivery construct's actions.
# To test this question, the delivery construct was directly deposited onto the luminal surface of colonic intestinal mucosa in a nonhuman primate model.
# circulating cytokines [4] = assay: Plasma cytokines by MSD V-plex Proinflammatory Panel 1 (Example 14); assay type: in vivo, mice
# Excerpt: Plasma cytokines were quantified using the V-plex Proinflammatory Panel 1 Mouse Kit. Plasma IL-1Ra was quantitated by sandwich immunoassay using an antibody pair from the Mouse IL-1Ra/IL-1F3 DuoSet ELISA (R&D Systems #DY480), Streptavidin SULFO-TAG Labeled (MSD #R32AD-1), Multi-Array 96 Plate Pack, SECTOR Plate MSD #L15XA-3 and Read Buffer T (4×) (MSD #R92TC-2). Samples were read on the QuickPlex SQ 120 plate reader (Meso Scale Discovery, Rockville, Md.).
# [5] = PK/PD by oral, subcutaneous, intravenous route in NHP; assay type: in vivo, Macaca fascicularis
# Excerpt: For oral administration the IL-10 delivery construct was formulated in size 0 enteric coated capsules. For intravenous or subcutaneous administration it was formulated as a liquid in DS lyo formulation.
# [6] = Control process train: Capto Q, CHT (Linear elution), based on historical data
# [7] = PT1: Capto Q, S-650F, CHT (FT mode)
# [8] = PT2: Capto Q, CHT (Step elution), S-650F
# [9] = PT3: S-650F, Capto Q, CHT (FT mode)
molecule,measurement,setting,value
B1,phosphorylation of STAT3 in cells within the Lamina propria,STAT3 phosphorylation,increased phosphorylation of STAT3
same,FCP activity at higher doses,ulcerative colitis; 10 mg and 30 mg,diminution of activity
same,"Geboes score of one UC patient, pre-dose to post-treatment","ulcerative colitis; 10 mg, 14 days, 22 point scale",improved from a score of 15 to a score of three
same,tolerability in patients with UC,"ulcerative colitis; 1-30 mg once daily, 14 days",well tolerated
same,CRP levels vs placebo,"ulcerative colitis; 1 and 3 mgs, baseline CRP greater than 5 mg/L",greater reductions in CRP levels
same,patients with reduced Geboes score,"ulcerative colitis; 14 days, active patients",60%
same,TEAEs in the 12 active patients,"ulcerative colitis; human, in vivo",20
same,Endotoxin,[1]; [6],*8 EU/mg
same,Purity,[1]; [6],*85%
same,Yield,"[1]; Control: Capto Q ImpRes, CHT gradient B/E",68 mg
same,Endotoxin,[1]; [7],8.9 EU/mg
same,Purity,[1]; [7],92%
same,Yield,"[1]; PT2: Capto Q ImpRes, CHT step B/E 80 mM NaPi, S-650F",26 mg
same,Endotoxin,[1]; [8],5 EU/mg
same,Purity,[1]; [8],91%
same,Endotoxin,[1]; [9],0.4 EU/mg
same,Purity,[1]; [9],96%
same,reduction of plasma IL-6 vs Vehicle,circulating cytokines [2],33%
same,reduction of plasma IL-23 vs Vehicle,circulating cytokines [2],73%
same,hIL-10 in small intestinal lysates relative to colonic lysates,[3],~10 fold higher
same,serum IL-1Ra,[3]; 4 h,significantly increased
same,suppression of induction of plasma IL-4 (trend),circulating cytokines [4],62%
same,suppression of induction of plasma IL-6 (trend),circulating cytokines [4],61%
same,suppression of induction of plasma IL-12p70 (trend),circulating cytokines [4],65%
same,suppression of induction of plasma KC/GRO (trend),circulating cytokines [4],51%
same,plasma IL-1β and IL-2 vs Vehicle,circulating cytokines [4]; p<0.05,significantly reduced
same,systemic IL-10 after oral vs subcutaneous or intravenous administration,[5]; oral 1 mg or 5 mgs,minimal systemic levels of IL-10
same,IL-1Ra/IL-10 ratio,[5]; subcutaneous 0.2 mg/kg or intravenous 0.05 mg/kg,minimal effect
